Measurements published in publication PMC5730196.

Columns and labels:
[1] = molecular target: DREP1 CIDE domain (DFF-related protein 1), wild type (Drosophila melanogaster); assay: SEC; purified proteins alone or mixed, Superdex 200 HR 10/30 in 20 mM Tris-HCl pH 8.0, 150 mM NaCl; peak fractions on SDS-PAGE
[2] = molecular target: DREP3 CIDE domain (DFF-related protein 3), wild type (Drosophila melanogaster); assay: as above

Substance | stoichiometry N [1] | stoichiometry N [2]
DREP1 CIDE domain (DFF-related protein 1), wild type (domain or fragment) | 2 | 
DREP3 CIDE domain (DFF-related protein 3), wild type (domain or fragment) |  | 2
